Measured values: the DeepSol protein solubility set

Test: soluble on expression in E. coli; label from the status in PepcDB or PDB records

| Sequence | soluble on expression in E. coli |
| --- | --- |
| MSGARRDNRRSNGRDDSSRVAKAENDRKPGRENRGGDEKRGNSNNAARSGGGGGGNRGGAERGIAPAQQPYDNNGGHRSGGGGGRSGGGGTSFNGAAFTESQLMDEVPKKKFTGRCRLFVGNLPNEVKETELKELFSPHGDIAECYLSGKGFAFLRLDTRAHAESAKEAIDGRIIHGRQVRVRFAVHGAAIRVKELSPTVSNEMLYHAFSHFGDVERAVHIVDEKGRPTGEGIVEFERKPNCNEAMAAIRDKVFLLTASPKPLICEVLEPRDEDDGLAERMIPRTPGLSKERELGPRFPTPNSFEYVYGMKWKELYVVEQKRRAQLDEELRESRRRLESDMELAYQDYQAQMLREDLQRRQQELERLEAARRERMRGLGGPPPGMPGGVPPQAQPFNPHGGSMFGGPGGPGGPPPFGQPFQQAPQGMFNVPTGPPPLMGGGGDPRGPPGGMGGPPGHGGMGGPPGHGGQGGPPGHGGMGGPPPGQGGPGVRETWRSWRNASKSHGRSNMIEGVQRLLQIFKSDNGPPGGMPGRDYPPQQGPGGMFGSYGDGGYPPEKKQRR | not soluble |
| MSDQLQMTDGMHIIVEALKQNNIDTIYGVVGIPVTDMARHAQAEGIRYIGFRHEQSAGYAAAASGFLTQKPGICLTVSAPGFLNGLTALANATVNGFPMIMISGSSDRAIVDLQQGDYEELDQMNAAKPYAKAAFRVNQPQDLGIALARAIRVSVSGRPGGVYLDLPANVLAATMEKDEALTTIVKVENPSPALLPCPKSVTSAISLLAKAERPLIILGKGAAYSQADEQLREFIESAQIPFLPMSMAKGILEDTHPLSAAAARSFALANADVVMLVGARLNWLLAHGKKGWAADTQFIQLDIEPQEIDSNRPIAVPVVGDIASSMQGMLAELKQNTFTTPLVWRDILNIHKQQNAQKMHEKLSTDTQPLNYFNALSAVRDVLRENQDIYLVNEGANTLDNARNIIDMYKPRRRLDCGTWGVMGIGMGYAIGASVTSGSPVVAIEGDSAFGFSGMEIETICRYNLPVTIVIFNNGGIYRGDGVDLSGAGAPSPTDLLHHARYDKLMDAFRGVGYNVTTTDELRHALTTGIQSRKPTIINVVIDPAAGTESGHITKLNPKQVAGN | soluble |
| MEKPDINVAEAWEQYWNKTLVNATPVLWDANVERAVVVDLPRFQSFFDTELPLIDFACGNGTQTKFLSQFFPRVIGFDVSKTALEMASKENTAANISYRLLDGLVPEQAAQIHSEIGDANIYMRTGFHHIPVEKRELLAQSLRTLLGKQGVMYLIELGTGCIEFFNSLLEKYGKLPYELSLVMEHGIRPGIFTTEDIELYFPDFEILSQGESLFQSIHKLPDGNYATPPAFWAVIKRHLEHHHHHH | soluble |
| MEEKWCNYLLNEGRDWKTMNKTILKTCIISAVLGGVLLTEKNGEVKAEEITPQTNHTGVFKDVPKGHWAYEAIQQLTDEKIVFGYDDGRFGFGDNVTREQVAALLYRYFNLAEEKNYENPYGDVSEESTSYIKEILSLTEMGVFKGDEHGNFRPKASLTRAEMAQVLTNAFHLKAKSNHTFNDVSTNSWASNAISAVQTNNIAKGVGGGNFAPNMDVTREQYAQFLYNAIQETEKTQETKGQLLASILGETNWQGTKVYDKDHNDVTKENQNFIGLAKYDAKTARYEFFNASTGESRNDSGTFFITNDGKKRVLISETQNYQAVVELTQLDKEKFTYKRMGKDAKRNDVEVFVEHIPYQEKELSFTRPDKNLESSTGKIVTDVDGDKILSSTLWNGTVVLDEQGNNVTKYNSNLISLAKYDKNTNKYEFFNVNTGESRGDYGFFDVVHDNKIRAHVSLGNNKYGAVLELTELNKEKFTYTRMGKDANGKDIKIFVEHEPNTGDLKPNFTK | not soluble |
| SLGAGQPLGGYAEDLEGRQADLPKYSRANVRIVFAAVFPESNVYQGGEGYPTPSSSRLLLLDQVKTYYALSSIHGVEIIESWRSAQEVLEAPRWRLGLLLHLEGADALADILDLELLHRLGFRSLGLTWNHDNRWAASCKTRRDYGLTQSGEDLVKKAAELGVIIDLAHASDKTVADAASASPKPVIVSHANFRWKVDSPRNVGEEAVEAVVSKGGVIGYSLISTLITRGRHPTLHDVASQMAEFVEVYGHRHLAIGTDYHGLLDIRPPTGLESIDRLPRLLEALADAGLSDRQIEAIAYGNIARVIREVLPES | not soluble |
| MGRIRQTFIKRTGEELIEKFADKFTSDFEENKKAVEEVAMISTKPLRNRIAGYVTAKVKKMNALEHHHHHH | not soluble |
| MSTDIDCIVIGAGVVGLAIARALAAGGHEVLVAEAAEGIGTGTSSRNSEVIHAGIYYPADSLKARLCVRGKHLLYEYCAARGVPHQRLGKLIVATSDAEASQLDSIARRAGANGVDDLQHIDGAAARRLEPALHCTAALVSPSTGIVDSHALMLAYQGDAENDGAQLVFHTPLIAGRVRPEGGFELDFGGAEPMTLSCRVLINAAGLHAPGLARRIEGIPRDSIPPEYLCKGSYFTLAGRAPFSRLIYPVPQHAGLGVHLTLDLGGQAKFGPDTEWIATEDYTLDPRRADVFYAAVRSYWPALPDGALAPGYTGIRPKISGPHEPAADFAISGPASHGVAGLVNLYGIESPGLTASLAIAEETLARLAALEHHHHHH | soluble |
| GSHMVMNTHPYQSEAVSDVWSLSKTSMTFQPKKASLQPLTISLDELFSSRGEFISVGGNGRMSHKEAILLGLRYKKLYNQARVKYSL | soluble |
| ATLDVRGGYRSGSHAYETRLKVSEGWQNGWWASMESNTWNTIHDNKKENAALNDVQVEVNYAIKLDDQWTVRPGMLTHFSSNGTRYGPYVKLSWDATKDLNFGIRYRYDWKAYRQQDLSGDMSRDNVHRWDGYVTYHINSDFTFAWQTTLYSKQNDYRYANHKKWATENAFVLQYHMTPDITPYIEYDYLDRQGVYNGRDNLSENSYRIGVSFKL | soluble |
| VTVHSTPVRRSSGPAPQSLLSARRVSALPTPASRRCSGLPPMTPKTMPRAVGSPLCVPARRRSSEPRKNSAMRTEPTRESNRKTDSRLVDVSPDRGSPPSRVPQALNFSPEESDSTFSKSTATEVAREEAKPGGDAAPSEALLVDIKLEPLAVTPDAASQPLIDLPLIDFCDTPEAHVAVGSESRPLIDLMTNTPDMNKNVAKPSPVVGQLIDLSSPLIQLSPEADKENVDSPLLKF | not soluble |
| MELDVKFEEKDLQHIRQVFSRLRGLGKSDGLTRKMASVLQEDAEDAFAMERTPDGVKWRDLSPKYKKQRYNKGYTGNILQRHGDLAGSLNIAYGDNFAAVGVAEHYGEYHQLGTKKMSARPFLGISEDGVEEIKEILNNAIRRALRD | not soluble |
| MKMIQFWFDFASTYSYPAAMQIRQLKDEYRFSLHPFLLGGIFQKQGLNDSPFNAYPVKGQYMWRDLERICQKLDLKFHRPVLFPQNGLLAARIACQYASAPWIFDFICSVYQANFVQNLDIGQPETISQILQNMQLDCNDIIMTSTTDTAKQTLKQNGMIAESLHIFGAPSFVVENELFWGQDRLQDAIDWSQR | not soluble |
| GPGSMTAVSNAAAVQATSGANGGSAVVTFFTTTYSKPMPEQSFSVPLNVLPDGLNQLVQNVLGVEGQNFDFLYKDEYIGTTLFRFLQRRGISCEELLNIEYTPALQAKEGNLLPHDDWVSSVRAPYRNNAELLLTGSYDHCVRLWDGDSCLALGSFHREAVKEVALHPVAPASSKTGRKRTRLDGDFMFASASKDGSVAAWKLDSTSSHMQLLGSIQAHTDGVDSVAIAPGDGRLVATASWDTTVKVFNWEQMMEGDTVPSKKAPLVTFTDHSRPVLCSRFSAAHGAARLYSAGYDGHIKCLDTEAAQLQSQFKGDHPINRISVKPAGSSPAADLLLSACTDNRARLFDTRQKDVVKTFSGSCQWLYSVVWLWDAQEGDAEHSGGSLFAVASEDATVRVYDLRCTNTALLTLDAMHTDGVLDVTYVGQSIIASGGKDNKTRSFALSKEGLLS | not soluble |
| MAKKNNKTKIQKPEAALQTDVAQITATGRVIAEHPSNFITPQKMRALFEDAESGDIRAQHELFADIEERDSDIAANMGTRKRALLTLNWRVAPPRNATPEEEKLSDQAYEMMDSLPTLEDLIMDLMDAVGHGFSALEVEWVFSDGLYLPRNFIHRPQSWFKWDKDNGLLLRTRENPEGEALWPLGWVVHTQKSRSVQQARNGLFRTLSWLYMFKHYAVHDFAEFLELYGMPIRIGKYGAGATKEEKNTLLRAVAEIGHNAAGIMPEGMEIELHNAANGTTATSNPFLQMADWCEKSAARLILGQTLTSGADGKSSTNALGNIHNEVRRDLLVSDAKQVAQTITSQIIGPFLQINYPHADPNRVPKFEFDTREPKDIAVFADAIPKLVDVGVQIPESWVRDKLVIPDVQEGEAVLVRQVPDNPVNRTALAALSAHTVPSKATGRHQEILDGALDDALVEPDFNSQLNPMVRQAVAALNACNSYEEADAALNALYPNLDNAKLRTYMQQALFISDILGQDHARA | not soluble |
| MGSDKIHHHHHHMQNVNSAFEYCDQLVKDFERVIEHPIVSKSSVYYTGIDLGTAYIVLAVLDENYQPVAGAYRFANVVKDGMVVDYIGAIRIVKELKQELEERLDTELVYAAAALPPGTMALDSGVIKHVVQGAGFEITNLLDEPTAANAVLKIKDGAIVDIGGGTTGITILKDGEVIYVADEPTGGTHFSLVIAGAYKMSFDEAENYKQNPKNHRELTPVVGPVVEKVSSILNRHLRDYQVETIYLVGGTCCLEGIETIIARQTGIPTYKPQNPMFVTPLGIALNCTQEIL | not soluble |
| MGSDKIHHHHHHMTNLNEKQLITEIVGLARSQGLTVHSENAQLNETGMDFQVVFAKDDTGMPWVLRKPRRSDVVERASAEGITLAFLRANLTADVPDWRIHTPELIAYPMLKGTPAAGIDLEQKQYVWNMDHQPPSDDFVRTLADILAELHGTDQISAGQSGIEVIRPEDFRQMTADSMVDVKNKLGVSTTLWERWQKWVDDDAYWPGFSSLIHGDLHPPHILIDQNGRVTGLLDWTEAKVADPAKDFVLYQTIFGEKETARLLEYYDQAGGRIWAKMQEHISEMQAAYPVEIAKLALQTQQEEHINMALEALGVTSD | not soluble |
| MGSDKIHHHHHHMNLTHRQLTMFRAIMLHGNLGRAADACASSQPTLSRELGRLEQLLGFNLFDRVRGRLRPTVRALALMQEVERSFIGLEQIAARASELRTQATGRLRIACLPALAHALVPRALVYLSHTHPELGVSVHPLESPWLEQAMSEQRFDLGLSETQKAPAGVTLQPLLKVNEVAVLPRDHSLCRKARLQPRDFTGERFISLAVGDPYRTAIDAMFEDAKVHRVTLLETTSSVAVCAMVRQGLGVAIVNPFTAMELSGPDLVVRSLTVAIGYQVNMLLPEIAAPHPLQSVLADTVRKASADLSHLDQCFY | not soluble |
| GSHMAIDENKQKALAAALGQIEKQFGKGSIMRLGEDRSMDVETISTGSLSLDIALGAGGLPMGRIVEIYGPESSGKTTLTLQVIAAAQREGKTCAFIDAEHALDPIYARKLGVDIDNLLCSQPDTGEQALEICDALARSGAVDVIVVDSVAALTPKAEIEGEIGDSHMGLAARMMSQAMRKLAGNLKQSNTLLIFINQIRMKIGVMFGNPETTTGGNALKFYASVRLDIRRIGAVKEGENVVGSETRVKVVKNKIAAPFKQAEFQILYGEGINFYGELVDLGVKEKLIEKAGAWYSYKGEKIGQGKANATAWLKDNPETAKEIEKKVRELLLSNPNSTPDFSVDDSEGVAETNEDF | soluble |
| SLRAFRRATDVKTMAALDIQISVEAEGWSSEENLAAFATKVLNAAVDFLKREEEQPFPKMPVELSLVFTDDENIREINAEWRDKDKATNVLSFPAFPLEPGGMPGPMLGDIVIARETVEREALELDKSFEDHLTHLLVHGFLHLFGYDHMDEEEAEEMESLETRILAVLGLSDPYAGQE | not soluble |
